Patent US20250340902A1, “GENE THERAPY FOR BVES-RELATED DISORDERS” (OHIO STATE INNOVATION FOUNDATION, priority 2022, published 2025)

Key:
[1] = molecular target: Sodium/potassium-transporting ATPase subunit alpha-2 (Mus musculus) (UniProt Q6PIE5); experiment: anti-HA co-IP from muscle, MS; CTRL 6
[2] = molecular target: Dystrophin (Mus musculus) (UniProt P11531); experiment: anti-HA co-IP from muscle, MS; CTRL 6
[3] = molecular target: Phosphorylase b kinase gamma catalytic chain, skeletal muscle/heart isoform (Mus musculus) (UniProt P07934); experiment: anti-HA co-IP from muscle, MS; CTRL 2
[4] = molecular target: T-complex protein 1 subunit beta (Mus musculus) (UniProt P80314); experiment: anti-HA co-IP from muscle, MS; CTRL 2
[5] = molecular target: Succinate--CoA ligase [ADP-forming] subunit beta, mitochondrial (Mus musculus) (UniProt Q9Z2I9); experiment: anti-HA co-IP from muscle, MS; CTRL 2
[6] = molecular target: Caveolae-associated protein 1 (Mus musculus) (UniProt O54724); experiment: anti-HA co-IP from muscle, MS; CTRL 2
[7] = molecular target: Trimeric intracellular cation channel type A (Mus musculus) (UniProt Q3TMP8); experiment: anti-HA co-IP from muscle, MS; CTRL 2
[8] = molecular target: Poly(rC)-binding protein 2 (Mus musculus) (UniProt Q61990); experiment: anti-HA co-IP from muscle, MS; CTRL 2
[9] = molecular target: Voltage-dependent L-type calcium channel subunit beta-1 (Mus musculus) (UniProt Q8R3Z5); experiment: anti-HA co-IP from muscle, MS; CTRL 2
[10] = molecular target: Spectrin beta chain, erythrocytic (Mus musculus) (UniProt P15508); experiment: anti-HA co-IP from muscle, MS; CTRL 2
Sequence of Spectrin beta chain, erythrocytic (Mus musculus) (P15508 whole entry, the tested form may be a part): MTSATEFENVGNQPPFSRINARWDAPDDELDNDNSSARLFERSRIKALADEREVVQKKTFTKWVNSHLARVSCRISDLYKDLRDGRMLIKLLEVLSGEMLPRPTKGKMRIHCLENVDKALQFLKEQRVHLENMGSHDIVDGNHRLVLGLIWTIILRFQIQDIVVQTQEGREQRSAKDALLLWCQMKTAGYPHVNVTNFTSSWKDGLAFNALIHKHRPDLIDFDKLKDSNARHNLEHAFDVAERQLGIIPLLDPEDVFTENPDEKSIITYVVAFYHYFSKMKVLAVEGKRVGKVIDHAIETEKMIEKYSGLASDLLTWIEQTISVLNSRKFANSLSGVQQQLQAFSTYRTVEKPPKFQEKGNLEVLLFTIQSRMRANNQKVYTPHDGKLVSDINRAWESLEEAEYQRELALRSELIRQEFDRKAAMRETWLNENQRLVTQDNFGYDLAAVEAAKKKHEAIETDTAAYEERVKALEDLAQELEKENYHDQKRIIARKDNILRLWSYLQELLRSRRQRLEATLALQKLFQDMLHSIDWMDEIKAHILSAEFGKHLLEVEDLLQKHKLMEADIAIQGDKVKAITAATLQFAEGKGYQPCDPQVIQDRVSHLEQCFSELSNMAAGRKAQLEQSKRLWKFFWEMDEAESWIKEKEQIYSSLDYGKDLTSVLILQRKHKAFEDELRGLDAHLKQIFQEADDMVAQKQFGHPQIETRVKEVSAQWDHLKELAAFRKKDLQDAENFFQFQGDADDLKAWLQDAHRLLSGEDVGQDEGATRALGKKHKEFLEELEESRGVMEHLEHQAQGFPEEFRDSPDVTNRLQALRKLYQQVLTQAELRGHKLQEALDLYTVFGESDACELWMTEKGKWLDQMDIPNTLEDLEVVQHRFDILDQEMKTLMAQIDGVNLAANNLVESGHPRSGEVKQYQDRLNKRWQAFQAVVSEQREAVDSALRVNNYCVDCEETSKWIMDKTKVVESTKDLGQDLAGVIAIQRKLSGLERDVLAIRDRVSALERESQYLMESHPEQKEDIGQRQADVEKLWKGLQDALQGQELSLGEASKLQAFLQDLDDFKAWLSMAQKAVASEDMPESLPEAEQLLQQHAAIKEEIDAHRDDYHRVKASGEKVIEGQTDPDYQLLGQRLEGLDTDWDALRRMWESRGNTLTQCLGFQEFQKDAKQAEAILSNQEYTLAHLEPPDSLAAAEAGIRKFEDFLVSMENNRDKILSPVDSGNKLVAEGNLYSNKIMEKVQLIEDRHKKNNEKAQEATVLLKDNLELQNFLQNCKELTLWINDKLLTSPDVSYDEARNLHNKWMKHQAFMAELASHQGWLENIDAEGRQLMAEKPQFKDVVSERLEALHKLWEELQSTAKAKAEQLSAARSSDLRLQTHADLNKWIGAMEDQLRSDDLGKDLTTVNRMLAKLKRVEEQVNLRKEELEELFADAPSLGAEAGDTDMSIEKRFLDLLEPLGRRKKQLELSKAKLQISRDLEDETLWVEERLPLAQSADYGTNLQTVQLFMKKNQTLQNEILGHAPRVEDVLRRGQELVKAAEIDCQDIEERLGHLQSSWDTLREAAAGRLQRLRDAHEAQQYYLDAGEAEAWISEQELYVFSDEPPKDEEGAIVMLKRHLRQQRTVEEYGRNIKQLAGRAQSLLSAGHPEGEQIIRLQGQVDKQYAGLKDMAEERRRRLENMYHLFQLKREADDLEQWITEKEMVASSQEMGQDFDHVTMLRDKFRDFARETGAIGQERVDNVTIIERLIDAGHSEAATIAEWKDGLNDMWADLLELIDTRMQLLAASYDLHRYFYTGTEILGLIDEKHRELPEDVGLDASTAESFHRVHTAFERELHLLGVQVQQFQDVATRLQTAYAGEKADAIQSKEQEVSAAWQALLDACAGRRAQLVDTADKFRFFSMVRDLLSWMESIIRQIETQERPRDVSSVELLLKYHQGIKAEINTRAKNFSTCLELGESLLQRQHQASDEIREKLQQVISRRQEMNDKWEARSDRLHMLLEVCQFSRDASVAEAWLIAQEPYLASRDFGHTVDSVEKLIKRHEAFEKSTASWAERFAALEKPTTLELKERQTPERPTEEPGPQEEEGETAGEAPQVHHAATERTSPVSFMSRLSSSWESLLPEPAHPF

[11] = molecular target: PDZ and LIM domain protein 5 (Mus musculus) (UniProt Q8CI51); experiment: anti-HA co-IP from muscle, MS; CTRL 2
[12] = molecular target: Very-long-chain enoyl-CoA reductase (Mus musculus) (UniProt Q9CY27); experiment: anti-HA co-IP from muscle, MS; CTRL 2
Sequence of Very-long-chain enoyl-CoA reductase (Mus musculus) (Q9CY27 whole entry): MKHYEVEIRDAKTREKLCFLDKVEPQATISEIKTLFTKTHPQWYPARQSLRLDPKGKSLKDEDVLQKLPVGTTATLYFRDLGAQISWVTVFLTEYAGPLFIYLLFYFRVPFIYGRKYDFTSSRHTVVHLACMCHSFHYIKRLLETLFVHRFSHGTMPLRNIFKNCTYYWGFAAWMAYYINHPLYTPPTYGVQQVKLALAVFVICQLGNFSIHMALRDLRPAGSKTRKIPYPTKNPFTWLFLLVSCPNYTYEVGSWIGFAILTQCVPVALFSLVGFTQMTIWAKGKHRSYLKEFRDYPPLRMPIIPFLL

[13] = molecular target: Serine/arginine repetitive matrix protein 2 (Mus musculus) (UniProt Q8BTI8); experiment: anti-HA co-IP from muscle, MS; CTRL 2
[14] = molecular target: Calcium/calmodulin-dependent protein kinase type II subunit alpha (Mus musculus) (UniProt P11798); experiment: anti-HA co-IP from muscle, MS; CTRL 2
[15] = molecular target: Tripartite motif-containing protein 72 (Mus musculus) (UniProt Q1XH17); experiment: anti-HA co-IP from muscle, MS; CTRL 2
[16] = molecular target: Indolethylamine N-methyltransferase (Mus musculus) (UniProt P40936); experiment: anti-HA co-IP from muscle, MS; CTRL 0
Sequence of Indolethylamine N-methyltransferase (Mus musculus) (P40936 whole entry): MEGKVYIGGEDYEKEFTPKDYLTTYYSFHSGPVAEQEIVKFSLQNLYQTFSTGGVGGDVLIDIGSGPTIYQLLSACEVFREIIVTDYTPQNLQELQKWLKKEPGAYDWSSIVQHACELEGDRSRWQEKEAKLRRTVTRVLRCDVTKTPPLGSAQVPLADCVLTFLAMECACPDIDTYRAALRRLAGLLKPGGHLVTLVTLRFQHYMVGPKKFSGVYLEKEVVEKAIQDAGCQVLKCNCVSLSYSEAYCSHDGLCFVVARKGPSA

[17] = molecular target: N-alpha-acetyltransferase 50 (Mus musculus) (UniProt Q6PGB6); experiment: anti-HA co-IP from muscle, MS; CTRL 0
Sequence of N-alpha-acetyltransferase 50 (Mus musculus) (Q6PGB6 whole entry): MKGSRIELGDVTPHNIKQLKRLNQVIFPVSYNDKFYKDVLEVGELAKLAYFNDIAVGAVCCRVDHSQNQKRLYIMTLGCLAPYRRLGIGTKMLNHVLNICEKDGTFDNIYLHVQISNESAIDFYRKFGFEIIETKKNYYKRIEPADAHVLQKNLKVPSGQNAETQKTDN

Fibulin-1 (Mus musculus) = Fibulin-1 (Mus musculus) (UniProt Q08879); experiment: anti-HA co-IP from muscle, MS; CTRL 0
[18] = molecular target: Medium-chain specific acyl-CoA dehydrogenase, mitochondrial (Mus musculus) (UniProt P45952); experiment: anti-HA co-IP from muscle, MS; CTRL 0
[19] = molecular target: Collagen alpha-1(XV) chain (Mus musculus) (UniProt O35206); experiment: anti-HA co-IP from muscle, MS; CTRL 0
[20] = molecular target: SUN domain-containing protein 2 (Mus musculus) (UniProt Q8BJS4); experiment: anti-HA co-IP from muscle, MS; CTRL 0
Sequence of SUN domain-containing protein 2 (Mus musculus) (Q8BJS4 whole entry, the tested form may be a part): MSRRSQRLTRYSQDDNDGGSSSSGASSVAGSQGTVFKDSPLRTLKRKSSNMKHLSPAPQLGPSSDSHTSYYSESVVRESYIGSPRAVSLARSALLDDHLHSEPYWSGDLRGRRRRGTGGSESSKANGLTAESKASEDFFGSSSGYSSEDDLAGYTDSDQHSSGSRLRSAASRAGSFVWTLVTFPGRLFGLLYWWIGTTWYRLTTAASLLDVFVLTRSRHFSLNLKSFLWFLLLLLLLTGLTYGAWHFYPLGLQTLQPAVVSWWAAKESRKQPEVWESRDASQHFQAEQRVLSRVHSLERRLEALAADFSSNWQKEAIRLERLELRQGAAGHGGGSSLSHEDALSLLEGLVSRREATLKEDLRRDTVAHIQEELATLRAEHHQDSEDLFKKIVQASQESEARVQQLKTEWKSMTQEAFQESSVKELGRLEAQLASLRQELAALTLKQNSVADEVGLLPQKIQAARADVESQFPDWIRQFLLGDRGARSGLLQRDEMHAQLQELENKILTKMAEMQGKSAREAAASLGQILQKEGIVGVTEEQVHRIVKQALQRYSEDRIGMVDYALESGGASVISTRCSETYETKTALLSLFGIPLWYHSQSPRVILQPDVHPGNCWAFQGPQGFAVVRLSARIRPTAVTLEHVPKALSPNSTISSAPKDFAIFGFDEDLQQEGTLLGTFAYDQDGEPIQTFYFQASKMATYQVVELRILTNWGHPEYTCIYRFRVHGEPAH

[21] = molecular target: Flavin reductase (NADPH) (Mus musculus) (UniProt Q923D2); experiment: anti-HA co-IP from muscle, MS; CTRL 0
Sequence of Flavin reductase (NADPH) (Mus musculus) (Q923D2 whole entry): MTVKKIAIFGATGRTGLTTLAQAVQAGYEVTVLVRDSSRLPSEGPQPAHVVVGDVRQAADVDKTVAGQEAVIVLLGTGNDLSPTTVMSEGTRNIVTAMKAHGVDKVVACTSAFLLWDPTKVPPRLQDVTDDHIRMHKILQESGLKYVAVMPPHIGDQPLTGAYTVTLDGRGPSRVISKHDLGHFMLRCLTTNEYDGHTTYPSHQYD

[22] = molecular target: Glutathione S-transferase LANCL1 (Mus musculus) (UniProt O89112); experiment: anti-HA co-IP from muscle, MS; CTRL 0
[23] = molecular target: BAG family molecular chaperone regulator 2 (Mus musculus) (UniProt Q91YN9); experiment: anti-HA co-IP from muscle, MS; CTRL 0
Sequence of BAG family molecular chaperone regulator 2 (Mus musculus) (Q91YN9 2-210 limits assumed): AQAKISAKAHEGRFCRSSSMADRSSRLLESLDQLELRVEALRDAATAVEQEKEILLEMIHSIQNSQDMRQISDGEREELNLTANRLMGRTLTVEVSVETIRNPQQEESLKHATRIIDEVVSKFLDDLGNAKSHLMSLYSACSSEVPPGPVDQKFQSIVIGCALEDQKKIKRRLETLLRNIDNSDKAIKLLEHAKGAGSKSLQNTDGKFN

[24] = molecular target: Serine-threonine kinase receptor-associated protein (Mus musculus) (UniProt Q9Z1Z2); experiment: anti-HA co-IP from muscle, MS; CTRL 0
Sequence of Serine-threonine kinase receptor-associated protein (Mus musculus) (Q9Z1Z2 whole entry): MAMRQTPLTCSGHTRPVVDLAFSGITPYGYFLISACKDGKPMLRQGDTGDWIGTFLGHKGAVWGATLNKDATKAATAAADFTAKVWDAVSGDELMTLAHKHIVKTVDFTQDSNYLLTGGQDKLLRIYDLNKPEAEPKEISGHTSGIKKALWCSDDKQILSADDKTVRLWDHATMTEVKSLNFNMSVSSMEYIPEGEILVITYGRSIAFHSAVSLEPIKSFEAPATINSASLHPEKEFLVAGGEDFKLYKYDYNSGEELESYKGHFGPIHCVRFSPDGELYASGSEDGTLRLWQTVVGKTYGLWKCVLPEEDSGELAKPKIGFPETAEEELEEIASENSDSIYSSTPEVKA

[25] = molecular target: Tubulin alpha-1B chain (Mus musculus) (UniProt P05213); experiment: anti-HA co-IP from muscle, MS; CTRL 0
[26] = molecular target: Monocarboxylate transporter 4 (Mus musculus) (UniProt P57787); experiment: anti-HA co-IP from muscle, MS; CTRL 0
[27] = molecular target: mRNA turnover protein 4 homolog (Mus musculus) (UniProt Q9D0I8); experiment: anti-HA co-IP from muscle, MS; CTRL 0
[28] = molecular target: Coatomer subunit epsilon (Mus musculus) (UniProt O89079); experiment: anti-HA co-IP from muscle, MS; CTRL 0
Basigin (Mus musculus) = Basigin (Mus musculus) (UniProt P18572); experiment: anti-HA co-IP from muscle, MS; CTRL 0
[29] = molecular target: CDP-diacylglycerol--inositol 3-phosphatidyltransferase (Mus musculus) (UniProt Q8VDP6); experiment: anti-HA co-IP from muscle, MS; CTRL 0
Sequence of CDP-diacylglycerol--inositol 3-phosphatidyltransferase (Mus musculus) (Q8VDP6 whole entry): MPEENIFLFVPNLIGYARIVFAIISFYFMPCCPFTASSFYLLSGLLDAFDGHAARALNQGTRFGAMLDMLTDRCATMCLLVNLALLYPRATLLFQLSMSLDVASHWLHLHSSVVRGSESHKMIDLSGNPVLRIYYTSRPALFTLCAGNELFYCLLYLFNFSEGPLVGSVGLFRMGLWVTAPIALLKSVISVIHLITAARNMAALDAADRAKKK

[30] = molecular target: Calcium/calmodulin-dependent protein kinase type II subunit gamma (Mus musculus) (UniProt Q923T9); experiment: anti-HA co-IP from muscle, MS; CTRL 0
[31] = molecular target: NADH dehydrogenase [ubiquinone] flavoprotein 1, mitochondrial (Mus musculus) (UniProt Q91YT0); experiment: anti-HA co-IP from muscle, MS; CTRL 0
[32] = molecular target: Nuclear speckle splicing regulatory protein 1 (Mus musculus) (UniProt Q5NCR9); experiment: anti-HA co-IP from muscle, MS; CTRL 0
[33] = molecular target: ATPase family AAA domain-containing protein 3 (Mus musculus) (UniProt Q925I1); experiment: anti-HA co-IP from muscle, MS; CTRL 0
Nidogen-2 (Mus musculus) = Nidogen-2 (Mus musculus) (UniProt O88322); experiment: anti-HA co-IP from muscle, MS; CTRL 3
[34] = molecular target: 3-ketoacyl-CoA thiolase, mitochondrial (Mus musculus) (UniProt Q8BWT1); experiment: anti-HA co-IP from muscle, MS; CTRL 3
Sequence of 3-ketoacyl-CoA thiolase, mitochondrial (Mus musculus) (Q8BWT1 whole entry): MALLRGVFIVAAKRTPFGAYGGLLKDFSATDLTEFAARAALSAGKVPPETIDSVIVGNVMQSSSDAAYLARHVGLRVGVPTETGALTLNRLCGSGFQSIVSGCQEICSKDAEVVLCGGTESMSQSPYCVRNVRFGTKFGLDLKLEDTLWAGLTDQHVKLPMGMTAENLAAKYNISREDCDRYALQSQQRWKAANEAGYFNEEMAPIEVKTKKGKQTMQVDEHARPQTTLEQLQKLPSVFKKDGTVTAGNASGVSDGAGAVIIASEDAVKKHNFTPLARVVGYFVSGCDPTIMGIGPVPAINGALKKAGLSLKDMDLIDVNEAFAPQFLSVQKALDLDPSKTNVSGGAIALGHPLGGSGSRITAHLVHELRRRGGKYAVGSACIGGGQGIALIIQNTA

[35] = molecular target: Cytoplasmic dynein 1 heavy chain 1 (Mus musculus) (UniProt Q9JHU4); experiment: anti-HA co-IP from muscle, MS; CTRL 3

human BVES fused with 3xHA tag (from UniProt Q8NE79 1-360)
AAV9-BVES-HA (IP-MS count) [1]: 41
AAV9-BVES-HA (IP-MS count) [2]: 77
AAV9-BVES-HA (IP-MS count) [3]: 6
AAV9-BVES-HA (IP-MS count) [4]: 6
AAV9-BVES-HA (IP-MS count) [5]: 8
AAV9-BVES-HA (IP-MS count) [6]: 19
AAV9-BVES-HA (IP-MS count) [7]: 7
AAV9-BVES-HA (IP-MS count) [8]: 6
AAV9-BVES-HA (IP-MS count) [9]: 6
AAV9-BVES-HA (IP-MS count) [10]: 41
AAV9-BVES-HA (IP-MS count) [11]: 7
AAV9-BVES-HA (IP-MS count) [12]: 9
AAV9-BVES-HA (IP-MS count) [13]: 11
AAV9-BVES-HA (IP-MS count) [14]: 11
AAV9-BVES-HA (IP-MS count) [15]: 6
AAV9-BVES-HA (IP-MS count) [16]: 2
AAV9-BVES-HA (IP-MS count) [17]: 2
AAV9-BVES-HA (IP-MS count) (Fibulin-1 (Mus musculus)): 3
AAV9-BVES-HA (IP-MS count) [18]: 2
AAV9-BVES-HA (IP-MS count) [19]: 7
AAV9-BVES-HA (IP-MS count) [20]: 14
AAV9-BVES-HA (IP-MS count) [21]: 2
AAV9-BVES-HA (IP-MS count) [22]: 2
AAV9-BVES-HA (IP-MS count) [23]: 6
AAV9-BVES-HA (IP-MS count) [24]: 2
AAV9-BVES-HA (IP-MS count) [25]: 13
AAV9-BVES-HA (IP-MS count) [26]: 12
AAV9-BVES-HA (IP-MS count) [27]: 2
AAV9-BVES-HA (IP-MS count) [28]: 2
AAV9-BVES-HA (IP-MS count) (Basigin (Mus musculus)): 4
AAV9-BVES-HA (IP-MS count) [29]: 2
AAV9-BVES-HA (IP-MS count) [30]: 13
AAV9-BVES-HA (IP-MS count) [31]: 3
AAV9-BVES-HA (IP-MS count) [32]: 2
AAV9-BVES-HA (IP-MS count) [33]: 3
AAV9-BVES-HA (IP-MS count) (Nidogen-2 (Mus musculus)): 12
AAV9-BVES-HA (IP-MS count) [34]: 9
AAV9-BVES-HA (IP-MS count) [35]: 12
